B1: FUNDC2 (parent)
chain: YIKVDWQRVEKDMKKAKEQLKIRK
B2: KCNA1 (parent)
chain: LKASMRELGLLIFFLFIGVILFSS
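Further: lentivirally expressed fusions sorted by FACS into six bins by GFP to DsRed ratio, PSI derived from sequencing read proportions per bin multiplied by bin number.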

The variants in the first data set derive from B1. The data set can be described thus: protein stability index of a GFP-peptide fusion (GPS, HEK-293T) (PSI 1-6); higher = more stable. As to conditions: c terminus: a fixed tail appended.
In the case of YIKSDWQRVEKDMKKAKEQLKIRK [V4S], the protein stability index turned out to be 2.25.

In the case of YIKRDWQRVEKDMKKAKEQLKIRK [V4R], the protein stability index is 2.74.

YIKTDWQRVEKDMKKAKEQLKIRK [V4T]: the protein stability index amounted to 1.71.

YIKKDWQRVEKDMKKAKEQLKIRK [V4K]: the protein stability index was found to be 1.92.

YIKMDWQRVEKDMKKAKEQLKIRK [V4M]: the protein stability index amounted to 1.45.

For YIKCDWQRVEKDMKKAKEQLKIRK [V4C], the protein stability index was 1.56.

As for YIKGDWQRVEKDMKKAKEQLKIRK [V4G], the protein stability index was found to be 2.36.

YIKADWQRVEKDMKKAKEQLKIRK [V4A]: the protein stability index was determined as 3.41.

Turning to YIKEDWQRVEKDMKKAKEQLKIRK [V4E], the protein stability index came to 1.81.

For the variant YIKYDWQRVEKDMKKAKEQLKIRK [V4Y], the protein stability index was found to be 2.4.

As for YIKVDPQRVEKDMKKAKEQLKIRK [W6P], the protein stability index is 3.15.

In the case of YIKVDDQRVEKDMKKAKEQLKIRK [W6D], the protein stability index was 3.77.

With YIKVDHQRVEKDMKKAKEQLKIRK [W6H], the protein stability index is 2.83.

As to YIKVDAQRVEKDMKKAKEQLKIRK [W6A], the protein stability index stood at 3.39.

YIKVDVQRVEKDMKKAKEQLKIRK [W6V]: the protein stability index is 3.49.

Take YIKVDEQRVEKDMKKAKEQLKIRK [W6E]: the protein stability index came out at 2.91.

With YIKVDLQRVEKDMKKAKEQLKIRK [W6L], the protein stability index was determined as 2.28.

Regarding YIKVDFQRVEKDMKKAKEQLKIRK [W6F], the protein stability index was 2.63.

Consider YIKVDQQRVEKDMKKAKEQLKIRK [W6Q], for which the protein stability index is 2.71.

Regarding YIKVDIQRVEKDMKKAKEQLKIRK [W6I], the protein stability index came out at 2.47.

On to YIKVDCQRVEKDMKKAKEQLKIRK [W6C], for which the protein stability index is 2.64.

For the variant YIKVDKQRVEKDMKKAKEQLKIRK [W6K], the protein stability index was 3.09.

Turning to YIKVDTQRVEKDMKKAKEQLKIRK [W6T], the protein stability index is 2.97.

In the case of YIKVDMQRVEKDMKKAKEQLKIRK [W6M], the protein stability index turned out to be 2.46.

As for YIKVDGQRVEKDMKKAKEQLKIRK [W6G], the protein stability index turned out to be 2.81.

As for YIKVDRQRVEKDMKKAKEQLKIRK [W6R], the protein stability index was 2.97.

Take YIKVDSQRVEKDMKKAKEQLKIRK [W6S]: the protein stability index amounted to 3.31.

As to YIKVDNQRVEKDMKKAKEQLKIRK [W6N], the protein stability index stood at 3.23.

As to YIKVDYQRVEKDMKKAKEQLKIRK [W6Y], the protein stability index was 2.24.

With YINVDWQRVEKDMKKAKEQLKIRK [K3N], the protein stability index came to 2.22.

For the variant YIPVDWQRVEKDMKKAKEQLKIRK [K3P], the protein stability index was determined as 2.07.

On to YIAVDWQRVEKDMKKAKEQLKIRK [K3A], for which the protein stability index worked out at 2.13.

In the case of YIMVDWQRVEKDMKKAKEQLKIRK [K3M], the protein stability index turned out to be 1.91.

YIVVDWQRVEKDMKKAKEQLKIRK [K3V]: the protein stability index was determined as 2.79.

On to YIYVDWQRVEKDMKKAKEQLKIRK [K3Y], for which the protein stability index is 3.14.

As for YILVDWQRVEKDMKKAKEQLKIRK [K3L], the protein stability index is 1.67.

For the variant YIRVDWQRVEKDMKKAKEQLKIRK [K3R], the protein stability index is 2.18.

For YIGVDWQRVEKDMKKAKEQLKIRK [K3G], the protein stability index stood at 2.54.

Take YIDVDWQRVEKDMKKAKEQLKIRK [K3D]: the protein stability index stood at 4.58.

On to YIFVDWQRVEKDMKKAKEQLKIRK [K3F], for which the protein stability index amounted to 1.98.

Take YISVDWQRVEKDMKKAKEQLKIRK [K3S]: the protein stability index came to 1.88.

On to YIHVDWQRVEKDMKKAKEQLKIRK [K3H], for which the protein stability index turned out to be 1.39.

For the variant YIWVDWQRVEKDMKKAKEQLKIRK [K3W], the protein stability index was found to be 2.09.

Regarding YICVDWQRVEKDMKKAKEQLKIRK [K3C], the protein stability index stood at 2.86.

Take YIEVDWQRVEKDMKKAKEQLKIRK [K3E]: the protein stability index was 2.4.

For YIIVDWQRVEKDMKKAKEQLKIRK [K3I], the protein stability index was determined as 1.73.

In another data set the parent is B2. Described as above. As to conditions: c terminus: a fixed tail appended.
For LKASMRELGLLIFFLFIGVILFWS [S23W], the protein stability index turned out to be 2.38.

In the case of LKASMRELGLLIFFLFIGVILFYS [S23Y], the protein stability index was 2.2.

As for LKASMRELGLLIFFLFIGVILFHS [S23H], the protein stability index was 2.15.

Regarding LKASMRELGLLIFFLFIGVILFVS [S23V], the protein stability index worked out at 2.

Regarding LKASMRELGLLIFFLFIGVILFKS [S23K], the protein stability index came out at 3.15.

With LKASMRELGLLIFFLFIGVILFAS [S23A], the protein stability index turned out to be 2.19.

Regarding LKASMRELGLLIFFLFIGVILFFS [S23F], the protein stability index was determined as 2.15.

Take LKASMRELGLLIFFLFIGVILFPS [S23P]: the protein stability index came out at 2.42.

In the case of LKASMRELGLLIFFLFIGVILFDS [S23D], the protein stability index was 2.75.

Turning to LKASMRELGLLIFFLFIGVILFIS [S23I], the protein stability index was determined as 1.85.

As to LKASMRELGLLIFFLFIGVILFTS [S23T], the protein stability index is 1.44.

Consider LKASMRELGLLIFFLFIGVILFNS [S23N], for which the protein stability index was 2.41.

Regarding LKASMRELGLLIFFLFIGVILFGS [S23G], the protein stability index was 2.03.

Take LKASMRELGLLIFFLFIGVILFCS [S23C]: the protein stability index was found to be 1.67.

LKASMRELGLLIFFLFIGVILFLS [S23L]: the protein stability index came out at 2.19.

On to LKASMRELGLLIFFLFIGVILFRS [S23R], for which the protein stability index stood at 3.62.

As to LKASMRELGLLIFFLFIGVILFMS [S23M], the protein stability index came to 2.35.

For LKASMRELGLLIFFLFIGVILFQS [S23Q], the protein stability index was 2.13.

With LKASMRELGLLIFFLFIGVILQSS [F22Q], the protein stability index turned out to be 3.69.

Turning to LKASMRELGLLIFFLFIGVILWSS [F22W], the protein stability index came out at 2.75.

As to LKASMRELGLLIFFLFIGVILPSS [F22P], the protein stability index was 2.64.

With LKASMRELGLLIFFLFIGVILTSS [F22T], the protein stability index was determined as 3.72.

In the case of LKASMRELGLLIFFLFIGVILNSS [F22N], the protein stability index was 3.37.

LKASMRELGLLIFFLFIGVILISS [F22I]: the protein stability index was 2.43.

Regarding LKASMRELGLLIFFLFIGVILRSS [F22R], the protein stability index stood at 2.24.

For LKASMRELGLLIFFLFIGVILMSS [F22M], the protein stability index amounted to 2.98.

Regarding LKASMRELGLLIFFLFIGVILSSS [F22S], the protein stability index turned out to be 2.95.

In the case of LKASMRELGLLIFFLFIGVILLSS [F22L], the protein stability index was 2.25.

Consider LKASMRELGLLIFFLFIGVILVSS [F22V], for which the protein stability index turned out to be 1.8.

On to LKASMRELGLLIFFLFIGVILKSS [F22K], for which the protein stability index was found to be 2.81.

As to LKASMRELGLLIFFLFIGVILYSS [F22Y], the protein stability index was found to be 1.93.

As to LKASMRELGLLIFFLFIGVILFSP [S24P], the protein stability index was 3.1.

LKASMRELGLLIFFLFIGVILFSL [S24L]: the protein stability index was determined as 1.47.

LKASMRELGLLIFFLFIGVILFSH [S24H]: the protein stability index is 2.

In the case of LKASMRELGLLIFFLFIGVILFSA [S24A], the protein stability index was 2.04.

Take LKASMRELGLLIFFLFIGVILFSK [S24K]: the protein stability index is 3.45.

For LKASMRELGLLIFFLFIGVILFSN [S24N], the protein stability index was 2.83.

For LKASMRELGLLIFFLFIGVILFSY [S24Y], the protein stability index is 2.06.

Regarding LKASMRELGLLIFFLFIGVILFSM [S24M], the protein stability index came to 2.42.

As to LKASMRELGLLIFFLFIGVILFSC [S24C], the protein stability index is 1.19.

Take LKASMRELGLLIFFLFIGVILFSE [S24E]: the protein stability index is 2.02.

As for LKASMRELGLLIFFLFIGVILFSI [S24I], the protein stability index is 1.23.

Regarding LKASMRELGLLIFFLFIGVILFSQ [S24Q], the protein stability index was 2.11.

As to LKASMRELGLLIFFLFIGVILFSV [S24V], the protein stability index was 1.85.

On to LKASMRELGLLIFFLFIGVILFSF [S24F], for which the protein stability index worked out at 2.02.

For the variant LKASMRELGLLIFFLFIGVILFSW [S24W], the protein stability index came out at 1.84.

With LKASMRELGLLIFFLFIGVILFSD [S24D], the protein stability index was 2.

For LKASMRELGLLIFFLFIGVILFST [S24T], the protein stability index was determined as 2.

The record behind these values is the supplement of paper PMC10567573.
